Blank lines part the entries; values can stand above or below the binder they belong to.
Columns and labels:
Assay in all cases: ITC; 400 µM TAZ1 or TAZ2 in the syringe injected into 16–30 µM MITF construct in the cell; 20 mM TRIS pH 8, 25 mM NaCl, 5 mM βME, 10 µM ZnCl2; 30 °C; single-binding-site fit; duplicate
Conditions in all cases: both partners purified
MITF_(CTERM) = target: T1, MITF_(CTERM) (UniProt O75030-9 289-419)
T1 construct: numbers count on: the MITF-M isoform; 15N-labelled for the NMR titration; also called C-terminal MITF-M; MITF C-terminal region; source: E. coli BL21 (DE3), purified (Ni-NTA, TEV cleavage, Q-Sepharose)
T1 sequence (looked up): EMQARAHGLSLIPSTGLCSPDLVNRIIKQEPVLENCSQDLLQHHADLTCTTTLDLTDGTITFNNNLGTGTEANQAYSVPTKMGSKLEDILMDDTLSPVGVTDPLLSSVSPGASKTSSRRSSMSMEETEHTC

MITF_(ΔThr-rich) = target: T2, MITF_(ΔThr-rich) (UniProt O75030-9 289-419, Δ334–345)
T2 construct: numbers count on: the MITF-M isoform; The methods print Δ334–354; the legend, the results and the canonical numbers (Δ441–452) give Δ334–345; also called Δ334–345; deletion of the threonine-rich region; source: E. coli BL21 (DE3), purified (Ni-NTA, TEV cleavage, Q-Sepharose)
T2 sequence (looked up): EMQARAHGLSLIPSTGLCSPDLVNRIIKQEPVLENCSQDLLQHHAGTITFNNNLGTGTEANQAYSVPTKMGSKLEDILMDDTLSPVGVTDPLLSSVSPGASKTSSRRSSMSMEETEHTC

MITF_(ΔAcidic) = target: T3, MITF_(ΔAcidic) (UniProt O75030-9 289-419, Δ372–381)
T3 construct: numbers count on: the MITF-M isoform; also called Δ372–381; deletion of the acidic region; source: E. coli BL21 (DE3), purified (Ni-NTA, TEV cleavage, Q-Sepharose)
T3 sequence (looked up): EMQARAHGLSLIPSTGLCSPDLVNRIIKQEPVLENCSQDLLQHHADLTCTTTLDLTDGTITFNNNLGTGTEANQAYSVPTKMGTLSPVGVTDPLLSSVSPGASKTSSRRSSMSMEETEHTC

MITF_(ΔSer-rich) = target: T4, MITF_(ΔSer-rich) (UniProt O75030-9 289-419, Δ394–411)
T4 construct: numbers count on: the MITF-M isoform; The methods print Δ372–381 for this variant too; the legend, the results and the canonical numbers (Δ501–518) give Δ394–411; also called Δ394–411; deletion of the serine-rich region; source: E. coli BL21 (DE3), purified (Ni-NTA, TEV cleavage, Q-Sepharose)
T4 sequence (looked up): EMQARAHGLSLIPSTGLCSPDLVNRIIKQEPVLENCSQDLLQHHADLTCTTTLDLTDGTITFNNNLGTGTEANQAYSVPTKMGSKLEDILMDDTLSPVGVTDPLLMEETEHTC

- Kd (MITF_(CTERM)): 760 ± 50 nM
- Kd (MITF_(ΔThr-rich)): 410 ± 20 nM
- Kd (MITF_(ΔAcidic)): 7240 ± 700 nM
- Kd (MITF_(ΔSer-rich)): 2260 ± 90 nM
B1: TAZ2 domain of CBP/p300 (domain or fragment)
chain: GDSRRLSIQRCIQSLVHACQCRNANCSLPSCQKMKRVVQHTKGCKRKTNGGCPICKQLIALCCYHAKHCQENKCPVPFCLNI

- Kd (MITF_(CTERM)): 5000 ± 310 nM
B2: TAZ1 domain of CBP/p300 (domain or fragment)
chain: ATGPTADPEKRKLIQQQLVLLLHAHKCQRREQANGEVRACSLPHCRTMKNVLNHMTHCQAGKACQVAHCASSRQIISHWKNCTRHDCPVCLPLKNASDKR
modifications: three structural Zn2+ ions expected; the paper does not state CBP or p300, species or limits (described in a cited paper); mouse CBP TAZ1 340-439 taken by convention

Source: publication PMC10522771, “The C-terminal transactivation domain of MITF interacts promiscuously with co-activator CBP/p300” (Scientific Reports, 2023)
